Measurements taken from article PMC5655542 (2017).

Biological target: T1, H. polygyrus Alarmin Release Inhibitor (HpARI), recombinant mature 6-His and Myc-tagged protein (Heligmosomoides polygyrus)
T1 chain: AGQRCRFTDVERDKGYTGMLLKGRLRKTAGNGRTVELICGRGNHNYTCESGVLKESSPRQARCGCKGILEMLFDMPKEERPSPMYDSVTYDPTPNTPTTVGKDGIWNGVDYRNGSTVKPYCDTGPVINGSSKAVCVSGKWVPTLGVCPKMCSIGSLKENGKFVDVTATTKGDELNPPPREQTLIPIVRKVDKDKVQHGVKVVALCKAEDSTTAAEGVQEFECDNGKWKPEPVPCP
Assay: SPR; 25°C

B1: recombinant human IL-33, untreated (reduced, active form) (ligand)
chain: MKPKMKYSTNKISTAKWKNTASKALCFKLGKSQQKAKEVCPMYFMKLRSGLMIKKEACYFRRETTKRPSLKTGRKHKRHLVLAACQQQSTVECFAFGISGVQKYTRALHDSSITGISPITEYLASLSTYNDQSITFALEDESYEIYVEDLKKDEKKDKVLLSYYESQHPSNESGDGVDGKMLMVTLSPTKDFWLHANNKEHSVELHKCEKPLPDQAFFVLHNMHSNCVSFECKTDPGVFIGVKDNHLALIKVDSSENLCTENILFKLSET
- koff: 0.004 s⁻¹

B2: recombinant murine IL-33, untreated (reduced, active form) (ligand)
chain: SIQGTSLLTQSPASLSTYNDQSVSFVLENGCYVINVDDSGKDQEQDQVLLRYYESPCPASQSGDGVDGKKLMVNMSPIKDTDIWLHANDKDYSVELQRGDVSPPEQAFFVLHKKSSDFVSFECKNLPGTYIGVKDNQLALVEEKDESCNNIMFKLSKI
modifications: reduced (free cysteines, no disulfides), active form; limits not given, taken as the usual commercial mature mouse IL-33 (Ser109-Ile266, UniProt chain 109-266)
- koff: 0.00014 s⁻¹
